Assay results published in patent US20210107982A1 (NANJING LEADS BIOLABS, published 2021).
Where two headings read alike, the source gives them in different places.

B1: 41BB-9-IgG2 (antibody, V domains shown)
VH: QVQLVQSGAEVKKPGSSVKVSCKASGGTFSSYAISWVRQAPGQGLEWMGGIIPISGAVNYAQKFQGRVTITADESTSTAYMELSSLRSEDTAVYYCARDQFIKYYDFSSGYFPNGFDIWGKGTLVTVSS
VL: QTVVTQPPSVSVSPGQTASITCSGDKLGDKYAAWYQQKPGQSPVLVIYQDTVRPSGIPERFSGSNSGNTATLTISGTQAMDEADYYCQTWVSSTGVFGTGTKVTVLG
notes: Full antibody, IgG2 / lambda
B2: 41BB-27-IgG2 (antibody, V domains shown)
VH: QVQLQESGPGPVKPSETLSLTCAVSGGSISSSHWWSWVRQPPGKGLEWIGEIYHSGRTYYNPSLKSRVTISVDTSRNQFSLKLSSVTAADTAVYYCAREDGGIMDVWGQGTLVTVSS
VL: LSSELTQDPAVSVALGQTVRITCQGDSLRRFYASWYQQKPGQAPVLVIYGKNNRPSGIPDRFSASDSGNTASLTITGAQAEDEADYYCSSRDRSGYRWVFGGGTKVTVLG
notes: Full antibody, IgG2 / lambda
B3: P4B-2 (bispecific antibody, human IgG1, kappa, L234A L235A)
heavy: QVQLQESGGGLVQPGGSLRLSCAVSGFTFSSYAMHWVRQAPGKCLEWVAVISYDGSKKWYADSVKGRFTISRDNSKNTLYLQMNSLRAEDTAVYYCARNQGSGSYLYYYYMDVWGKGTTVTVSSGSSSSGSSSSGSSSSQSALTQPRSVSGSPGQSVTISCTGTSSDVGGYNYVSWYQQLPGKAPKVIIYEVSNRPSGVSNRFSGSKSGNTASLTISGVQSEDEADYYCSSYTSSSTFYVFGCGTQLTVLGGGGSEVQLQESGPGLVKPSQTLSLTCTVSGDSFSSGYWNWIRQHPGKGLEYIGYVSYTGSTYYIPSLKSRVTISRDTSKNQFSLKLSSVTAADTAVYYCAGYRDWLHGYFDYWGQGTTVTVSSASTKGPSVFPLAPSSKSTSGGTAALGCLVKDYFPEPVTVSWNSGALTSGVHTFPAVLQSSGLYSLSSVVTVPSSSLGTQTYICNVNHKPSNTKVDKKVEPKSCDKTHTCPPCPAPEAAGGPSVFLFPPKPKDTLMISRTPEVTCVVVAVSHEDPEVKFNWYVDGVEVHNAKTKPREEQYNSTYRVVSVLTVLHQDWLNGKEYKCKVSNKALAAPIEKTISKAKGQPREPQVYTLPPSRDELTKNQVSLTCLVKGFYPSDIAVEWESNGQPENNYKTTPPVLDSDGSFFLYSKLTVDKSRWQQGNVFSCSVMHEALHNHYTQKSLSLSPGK
light: DIQMTQSPSSLSASVGDRVTITCKASQNVMDNVAWYQQKPGKAPKRLIYSASYRFSGVPSRFSGSGSGTEFTLTISSLQPEDFATYYCQQYNGYPLTFGQGTKLEIKRTVAAPSVFIFPPSDEQLKSGTASVVCLLNNFYPREAKVQWKVDNALQSGNSQESVTEQDSKDSTYSLSSTLTLSKADYEKHKVYACEVTHQGLSSPVTKSFNRGEC
notes: PD-L1 x 4-1BB bispecific; the 4-1BB scFv stands at the N-terminus of each heavy chain of the PD-L1 antibody
B4: P4B-3 (bispecific antibody, human IgG1, kappa, L234A L235A)
heavy: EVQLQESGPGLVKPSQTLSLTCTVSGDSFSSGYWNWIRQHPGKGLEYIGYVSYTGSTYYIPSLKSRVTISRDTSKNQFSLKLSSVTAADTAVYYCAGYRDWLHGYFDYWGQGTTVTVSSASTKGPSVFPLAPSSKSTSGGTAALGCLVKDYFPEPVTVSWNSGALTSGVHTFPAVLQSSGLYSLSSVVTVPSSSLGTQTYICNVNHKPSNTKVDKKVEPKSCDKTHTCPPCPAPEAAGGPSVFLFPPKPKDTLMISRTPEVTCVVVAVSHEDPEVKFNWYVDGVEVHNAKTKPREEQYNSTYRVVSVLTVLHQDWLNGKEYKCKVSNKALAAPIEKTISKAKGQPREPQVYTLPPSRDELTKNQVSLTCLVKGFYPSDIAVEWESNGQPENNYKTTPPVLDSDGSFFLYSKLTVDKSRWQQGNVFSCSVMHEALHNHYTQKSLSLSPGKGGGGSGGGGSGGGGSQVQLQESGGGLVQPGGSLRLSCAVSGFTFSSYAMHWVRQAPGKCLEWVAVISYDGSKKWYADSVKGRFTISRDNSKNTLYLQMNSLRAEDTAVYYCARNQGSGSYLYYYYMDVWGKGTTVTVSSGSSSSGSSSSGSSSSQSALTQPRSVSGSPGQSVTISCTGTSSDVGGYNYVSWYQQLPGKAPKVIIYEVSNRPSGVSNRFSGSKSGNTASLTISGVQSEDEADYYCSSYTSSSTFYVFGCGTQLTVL
light: B3 light
notes: PD-L1 x 4-1BB bispecific; the 4-1BB scFv stands at the C-terminus of each heavy chain of the PD-L1 antibody
B5: Urelumab (antibody, human IgG4 S228P, kappa, V domains shown)
VH: QVQLQQWGAGLLKPSETLSLTCAVYGGSFSGYYWSWIRQSPEKGLEWIGEINHGGYVTYNPSLESRVTISVDTSKNQFSLKLSSVTAADTAVYYCARDYGPGNYDWYFDLWGRGTLVTVSS
VL: EIVLTQSPATLSLSPGERATLSCRASQSVSSYLAWYQQKPGQAPRLLIYDASNRATGIPARFSGSGSGTDFTLTISSLEPEDFAVYYCQQRSNWPPALTFCGGTKVEIKR
B6: 41BB-2-IgG2 (antibody, V domains shown)
VH: QVQLQESGGGLVQPGGSLRLSCAVSGFTFSSYAMHWVRQAPGKGLEWVAVISYDGSKKWYADSVKGRFTISRDNSKNTLYLQMNSLRAEDTAVYYCARNQGSGSYLYYYYMDVWGKGTTVTVSS
VL: QSALTQPRSVSGSPGQSVTISCTGTSSDVGGYNYVSWYQQLPGKAPKVIIYEVSNRPSGVSNRFSGSKSGNTASLTISGVQSEDEADYYCSSYTSSSTFYVFGTGTQLTVLS
notes: Full antibody; VH joined to the IgG2 constant region, VL to the lambda constant region
B7: 41BB-13-IgG2 (antibody, V domains shown)
VH: EVQLVETGVEVKKPGASVKVSCKASGYTFTSYYMHWVRQAPGQGLEWMGIINPSGGSTSYAQKFQGRVTMTRDTSTSTAYMELSSLRSEDTAVYYCARDLGEGYDFWSGYYTPSGAFDIWGKGTMVTVSS
VL: QSALTQPASVSGSPGQSITISCTGTSSDVGGYNYVSWYQQRPGKAPKLIIYDVTTRPSGVSNRFSGSKSGTTASLTISGLQAEDEADYYCSSYTSYSTWVFGGGTKLTVLG
notes: Full antibody, IgG2 / lambda

Legend:
[1] = target: T1, Human CD27 (Sinobiological, Cat #10039-H31H) (human, UniProt P26842 20-192); assay: ELISA, antigen coated at 25 ng/well
T1 sequence (looked up): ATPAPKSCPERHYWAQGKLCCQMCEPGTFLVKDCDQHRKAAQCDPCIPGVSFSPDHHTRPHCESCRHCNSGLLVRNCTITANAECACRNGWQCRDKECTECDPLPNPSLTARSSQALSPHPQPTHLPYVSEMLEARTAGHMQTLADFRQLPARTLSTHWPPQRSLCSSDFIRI

[2] = target: T2, Human OX40 (Sinobiological, Cat #10481-H08H) (human, UniProt P43489 29-216); assay: ELISA, antigen coated at 25 ng/well
T2 sequence (looked up): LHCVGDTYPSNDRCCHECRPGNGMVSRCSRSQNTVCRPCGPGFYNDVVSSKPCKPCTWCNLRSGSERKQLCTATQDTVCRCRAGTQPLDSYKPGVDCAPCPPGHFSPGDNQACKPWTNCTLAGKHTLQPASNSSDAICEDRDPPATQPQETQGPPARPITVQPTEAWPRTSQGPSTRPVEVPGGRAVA

[3] = target: T3, Human GITR (Sinobiological, Cat #13643-H08H) (human, UniProt Q9Y5U5 26-161); assay: ELISA, antigen coated at 25 ng/well
T3 sequence (looked up): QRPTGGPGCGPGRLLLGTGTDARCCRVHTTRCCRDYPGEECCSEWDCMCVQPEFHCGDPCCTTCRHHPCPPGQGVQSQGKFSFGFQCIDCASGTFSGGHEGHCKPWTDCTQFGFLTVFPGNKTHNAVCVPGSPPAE

[4] = target: Human CD40 (Sinobiological, Cat #10774-H08H) (human, UniProt P25942 21-193); assay: ELISA, antigen coated at 25 ng/well
[5] = target: T4, Human HVEM (Sinobiological, Cat #10334-H03H) (human, UniProt Q92956 39-202); assay: ELISA, antigen coated at 25 ng/well
T4 sequence (looked up): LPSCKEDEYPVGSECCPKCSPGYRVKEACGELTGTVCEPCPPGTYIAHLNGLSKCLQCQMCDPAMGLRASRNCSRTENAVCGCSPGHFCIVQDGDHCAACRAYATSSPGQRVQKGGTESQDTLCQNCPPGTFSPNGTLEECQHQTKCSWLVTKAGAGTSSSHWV

[6] = target: T5, Human 4-1BB recombinant protein (Sinobiological, Cat #10041-H08H) (human, UniProt Q07011 24-186); assay: ELISA on plate-coated human 4-1BB (25 ng/well), HRP anti-human IgG F(ab')2 detection, OD450; EC50 table under the curve, unit taken from the axis 'Antibody Conc [nM]'
T5 construct: Bought recombinant protein

[7] = target: T6, Human 4-1BB expressed on HEK293-NFκB-Luc-human 4-1BB cells (human, UniProt Q07011 24-255); assay: cell-based or functional assay
[8] = target: T6, Human 4-1BB expressed on …; assay: cell-based or functional assay; remark: listed apart in the source
[9] = target: T6, Human 4-1BB expressed on …; assay: cell-based or functional assay; remark: listed apart in the source
[10] = target: T5, Human 4-1BB recombinant protein …; assay: ELISA on plate-coated human 4-1BB (25 ng/well), HRP anti-human IgG F(ab')2 detection, OD450; EC50 table under the curve, unit taken from the axis 'Antibody Conc [nM]'; remark: listed apart in the source
[11] = target: T7, Human 4-1BB, human Fc tag protein (Hu4-1BB-hFc) (human); assay: ELISA, Hu4-1BB-hFc coated, antibody 6.65 nM to 0.009 nM
T7 construct: also called Hu4-1BB-huFc; human 4-1BB proteins

[12] = target: T5, Human 4-1BB recombinant protein …; assay: BLI (ForteBio Octet RED 96), antibody on AHC sensors, human 4-1BB as analyte, 1:1 model
[13] = target: T6, Human 4-1BB expressed on …; assay: cell-based or functional assay; remark: listed apart in the source
[14] = target: T6, Human 4-1BB expressed on …; assay: cell-based or functional assay; remark: listed apart in the source
[15] = target: T5, Human 4-1BB recombinant protein …; assay: ELISA on plate-coated human 4-1BB (25 ng/well), HRP anti-human IgG F(ab')2 detection, OD450-620; EC50 table under the curve, unit taken from the axis 'Antibody Conc [nM]'
[16] = target: T6, Human 4-1BB expressed on …; assay: cell-based or functional assay; remark: listed apart in the source
[17] = target: T5, Human 4-1BB recombinant protein …; assay: ELISA on plate-coated human 4-1BB (25 ng/well), HRP anti-human IgG F(ab')2 detection, OD450; EC50 table under the curve, unit taken from the axis 'Antibody Conc [nM]'; remark: listed apart in the source
[18] = target: T6, Human 4-1BB expressed on …; assay: cell-based or functional assay; remark: listed apart in the source

Chain of Human CD40 (Sinobiological, Cat #10774-H08H) (P25942 21-193 limits assumed): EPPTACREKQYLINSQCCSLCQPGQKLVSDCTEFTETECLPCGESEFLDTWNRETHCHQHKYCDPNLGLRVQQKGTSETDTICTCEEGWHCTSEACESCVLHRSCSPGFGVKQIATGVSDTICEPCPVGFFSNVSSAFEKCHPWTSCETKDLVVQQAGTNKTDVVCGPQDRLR
T6 sequence (Q07011 24-255 limits assumed): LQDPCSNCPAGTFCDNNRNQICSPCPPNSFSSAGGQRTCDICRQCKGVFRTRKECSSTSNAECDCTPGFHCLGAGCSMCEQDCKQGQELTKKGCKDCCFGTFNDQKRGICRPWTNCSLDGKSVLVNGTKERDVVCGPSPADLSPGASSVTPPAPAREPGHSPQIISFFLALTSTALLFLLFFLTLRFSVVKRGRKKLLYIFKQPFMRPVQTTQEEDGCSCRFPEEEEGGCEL
T7 sequence (chain, as listed by the source limits assumed): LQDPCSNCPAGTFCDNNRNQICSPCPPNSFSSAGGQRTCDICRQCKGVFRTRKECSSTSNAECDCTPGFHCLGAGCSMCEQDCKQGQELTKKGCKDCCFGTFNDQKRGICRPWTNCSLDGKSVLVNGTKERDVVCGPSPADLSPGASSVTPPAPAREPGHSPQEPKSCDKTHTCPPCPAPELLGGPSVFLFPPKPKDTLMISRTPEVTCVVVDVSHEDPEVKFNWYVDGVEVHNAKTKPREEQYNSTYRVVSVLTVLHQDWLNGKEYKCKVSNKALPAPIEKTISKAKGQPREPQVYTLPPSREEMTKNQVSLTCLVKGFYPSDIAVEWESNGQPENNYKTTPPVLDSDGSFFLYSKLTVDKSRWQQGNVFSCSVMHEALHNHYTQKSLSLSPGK

| binding result [1] | binding result [2] | binding result [3] | binding result [4] | binding result [5] | other results | Binder |
| --- | --- | --- | --- | --- | --- | --- |
| no binding (tested: 500 ng/mL) | no binding (tested: 500 ng/mL) | no binding (tested: 500 ng/mL) | no binding (tested: 500 ng/mL) | no binding (tested: 500 ng/mL) | EC50 [6]: 0.134 nM; EC50, NFκB-luciferase reporter (RLUs) in HEK293-NFκB-Luc-4-1BB cells, with crosslink (goat anti-human IgG) [7]: 3.24 nM; EC50, NFκB-luciferase reporter (RLUs) in HEK293-NFκB-Luc-4-1BB cells, without crosslink [8]: 16.6 nM | B1 |
| no binding (tested: 500 ng/mL) | no binding (tested: 500 ng/mL) | no binding (tested: 500 ng/mL) | no binding (tested: 500 ng/mL) | no binding (tested: 500 ng/mL) | EC50, NFκB-luciferase reporter (RLUs) in HEK293-NFκB-Luc-4-1BB cells, without crosslink [9]: 35.9 nM; EC50 [10]: 0.05 nM | B2 |
| – | – | – | – | – | EC50 [11]: 0.113 nM | B3 |
| – | – | – | – | – | Kd [12]: 146 nM; koff [12]: 0.00409 s⁻¹; kon [12]: 28000 M⁻¹ s⁻¹; EC50 [11]: 0.0723 nM | B4 |
| – | – | – | – | – | EC50, NFκB-luciferase reporter (RLUs) in HEK293-NFκB-Luc-4-1BB cells, without crosslink [13]: 26.8 nM; EC50, NFκB-luciferase reporter (RLUs) in HEK293-NFκB-Luc-4-1BB cells, without crosslink [8]: 34 nM; EC50, NFκB-luciferase reporter (RLUs) in HEK293-NFκB-Luc-4-1BB cells, without crosslink [14]: 32.3 nM | B5 |
| no binding (tested: 500 ng/mL) | no binding (tested: 500 ng/mL) | no binding (tested: 500 ng/mL) | no binding (tested: 500 ng/mL) | no binding (tested: 500 ng/mL) | EC50, NFκB-luciferase reporter (RLUs) in HEK293-NFκB-Luc-4-1BB cells, without crosslink [13]: 47.4 nM; EC50 [15]: 0.622 nM; EC50, NFκB-luciferase reporter (RLUs) in HEK293-NFκB-Luc-4-1BB cells, without crosslink [9]: 56.1 nM; EC50, NFκB-luciferase reporter (RLUs) in HEK293-NFκB-Luc-4-1BB cells, with crosslink (goat anti-human IgG) [16]: 6.21 nM | B6 |
| no binding (tested: 500 ng/mL) | no binding (tested: 500 ng/mL) | no binding (tested: 500 ng/mL) | no binding (tested: 500 ng/mL) | no binding (tested: 500 ng/mL) | EC50 [17]: 1.27 nM; EC50, NFκB-luciferase reporter (RLUs) in HEK293-NFκB-Luc-4-1BB cells, with crosslink (goat anti-human IgG) [18]: 10.6 nM; EC50, NFκB-luciferase reporter (RLUs) in HEK293-NFκB-Luc-4-1BB cells, without crosslink [14]: 106 nM | B7 |
